Experiments:
HDM4(25-47) [1] = target: T1, HDM4(25-47) (Homo sapiens, not fully specified; Ca2+; peptide N-acetylated, C-amidated); test: NMR line shape analysis
T1 chain: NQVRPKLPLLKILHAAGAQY

[2] = target: T2, TRTK12 (CapZ peptide 265-276) (Homo sapiens, not fully specified); test: NMR line shape analysis
T2 chain: Ac-TRTKIDWNKILS-NH2

HDM2(25-47) [3] = target: T3, HDM2(25-47) (Homo sapiens, not fully specified; Ca2+; peptide N-acetylated, C-amidated); test: NMR line shape analysis
T3 chain: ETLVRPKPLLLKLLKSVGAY

HDM4(25-47) [4] = target: T1, HDM4(25-47); test: ITC
NDR(62-87), site 1 = target: T4, NDR(62-87), site 1 (Homo sapiens, not fully specified; Ca2+; peptide N-acetylated, C-amidated); test: ITC
T4 chain: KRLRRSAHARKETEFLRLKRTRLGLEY

NDR(62-87), site 2 = target: T5, NDR(62-87), site 2 (Homo sapiens, not fully specified; Ca2+; peptide N-acetylated, C-amidated); test: ITC
T5 chain: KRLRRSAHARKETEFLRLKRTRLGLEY

[5] = target: T2, TRTK12 (CapZ peptide 265-276); test: ITC
HDM2(25-47) [6] = target: T3, HDM2(25-47); test: ITC

Kd (HDM4(25-47) [1]): 1000 nM
Kd [2]: 1000 nM
Kd (HDM2(25-47) [3]): 100 nM
Kd (HDM4(25-47) [4]): 70 nM
Kd (NDR(62-87), site 1): 400 nM
Kd (NDR(62-87), site 2): 2000 nM
Kd [5]: 2000 nM
Kd (HDM2(25-47) [6]): 500 nM
B1: S100B (protein)
chain: SELEKAMVALIDVFHQYSGREGDKHKLKKSELKELINNELSHFLEEIKEQEVVDKVMETLDNDGDGECDFQEFMAFVAMVTTACHEFFEHE
